Measured values as given in patent CN114456264A (INST OF MICROBIOLOGY OF CHINESE ACADEMY OF SCIENCES, dated 2022).

Molecular target: SARS-CoV RBD蛋白 (SARS-CoV, UniProt P59594 306-527)
Experiment: SPR, Biacore 8K, RBD on SA chip, antibody as analyte

B1: 抗体IMCAS-364 (antibody, V domains shown)
VH: QVQLQESGGGVVQPGRSLRLSCAASGFTFSRYGMHWVRQAPGKGLEWVAVIWYDGSNKYYADSVKGRFTISRDNSKNTLYLQMNSLRADDTAVYYCAKQEGTYCSGGSCYSGLDYWGQGTLVTVSS
VL: not shown
- Kd: 8.17 nM
